In the supplement of paper PMC11246515:
± gives the standard deviation of the averaged measurements.

Test: total protein half-life in vivo (active degradation + dilution); higher = more stable protein
[1] = E. coli NCM3722 delta-clpP, growth: N-lim chemostat, doubling time 6 h
[2] = E. coli NCM3722 delta-smpB, growth: N-lim chemostat, doubling time 6 h
[3] = wild type E. coli NCM3722, growth: C-lim chemostat, doubling time 12 h
[4] = wild type E. coli NCM3722, growth: N-lim chemostat, doubling time 6 h
[5] = wild type E. coli NCM3722, growth: P-lim chemostat, doubling time 6 h
[6] = wild type E. coli NCM3722, growth: P-lim chemostat, doubling time 12 h
[7] = E. coli NCM3722 delta-clpP delta-lon delta-hslV, growth: N-lim chemostat, doubling time 6 h
[8] = E. coli NCM3722 delta-hslV, growth: N-lim chemostat, doubling time 6 h
[9] = E. coli NCM3722 delta-lon, growth: N-lim chemostat, doubling time 6 h
[10] = wild type E. coli NCM3722, growth: C-lim chemostat, doubling time 3 h
[11] = wild type E. coli NCM3722, growth: C-lim chemostat, doubling time 6 h
[12] = wild type E. coli NCM3722, growth: N-lim chemostat, doubling time 12 h

MDDIVNSVPSWMFTAIIAVCILFIIGIIFARLYRRASAEQAFVRTGLGGQKVVMSGGAIVMPIFHEIIPINMNTLKLEVSRSTIDSLITKDRMRVDVVVAFFVRVKPSVEGIATAAQTLGQRTLSPEDLRMLVEDKFVDALRATAAQMTMHELQDTRENFVQGVQNTVAEDLSKNGLELESVSLTNFNQTSKEHFNPNNAFDAEGLTKLTQETERRRRERNEVEQDVEVAVREKNRDALSRKLEIEQQEAFMTLEQEQQVKTRTAEQNARIAAFEAERRREAEQTRILAERQIQETEIDREQAVRSRKVEAEREVRIKEIEQQQVTEIANQTKSIAIAAKSEQQSQAEARANLALAEAVSAQQNVETTRQTAEADRAKQVALIAAAQDAETKAVELTVRAKAEKEAAEMQAAAIVELAEATRKKGLAEAEAQRALNDAINVLSDEQTSLKFKLALLQALPAVIEKSVEPMKSIDGIKIIQVDGLNRGGAAGDANTGNVGGGNLAEQALSAALSYRTQAPLIDSLLNEIGVSGGSLAALTSPLTSTTPVEEKAE
total protein half-life in vivo [1]: 4.22 h | total protein half-life in vivo [2]: 3.89 h | total protein half-life in vivo [3]: 9.53 h | total protein half-life in vivo [4]: 3.81 h | total protein half-life in vivo [5]: 6.67 h | total protein half-life in vivo [6]: 12.3 h

MDDQLKQSALDFHEFPVPGKIQVSPTKPLATQRDLALAYSPGVAAPCLEIEKDPLKAYKYTARGNLVAVISNGTAVLGLGNIGALAGKPVMEGKGVLFKKFAGIDVFDIEVDELDPDKFIEVVAALEPTFGGINLEDIKAPECFYIEQKLRERMNIPVFHDDQHGTAIISTAAILNGLRVVEKNISDVRMVVSGAGAAAIACMNLLVALGLQKHNIVVCDSKGVIYQGREPNMAETKAAYAVVDDGKRTLDDVIEGADIFLGCSGPKVLTQEMVKKMARAPMILALANPEPEILPPLAKEVRPDAIICTGRSDYPNQVNNVLCFPFIFRGALDVGATAINEEMKLAAVRAIAELAHAEQSEVVASAYGDQDLSFGPEYIIPKPFDPRLIVKIAPAVAKAAMESGVATRPIADFDVYIDKLTEFVYKTNLFMKPIFSQARKAPKRVVLPEGEEARVLHATQELVTLGLAKPILIGRPNVIEMRIQKLGLQIKAGVDFEIVNNESDPRFKEYWTEYFQIMKRRGVTQEQAQRALISNPTVIGAIMVQRGEADAMICGTVGDYHEHFSVVKNVFGYRDGVHTAGAMNALLLPSGNTFIADTYVNDEPDAEELAEITLMAAETVRRFGIEPRVALLSHSNFGSSDCPSSSKMRQALELVRERAPELMIDGEMHGDAALVEAIRNDRMPDSSLKGSANILVMPNMEAARISYNLLRVSSSEGVTVGPVLMGVAKPVHVLTPIASVRRIVNMVALAVVEAQTQPL
total protein half-life in vivo [7]: 5.85 ± 0.24 h | total protein half-life in vivo [1]: 6.35 ± 2.2 h | total protein half-life in vivo [8]: 5.84 ± 0.13 h | total protein half-life in vivo [9]: 7.1 ± 0.61 h | total protein half-life in vivo [2]: 5.6 ± 0.15 h | total protein half-life in vivo [10]: 3.13 ± 0.15 h | total protein half-life in vivo [11]: 5.948 ± 0.055 h | total protein half-life in vivo [3]: 10.7 ± 0.31 h | total protein half-life in vivo [4]: 5.97 ± 0.3 h | total protein half-life in vivo [12]: 10.983 ± 0.005 h | total protein half-life in vivo [5]: 6.35 ± 0.11 h | total protein half-life in vivo [6]: 12.2 ± 1.3 h

MDEFKPEDELKPDPSDRRTGRSRQSSERSERTERGEPQINFDDIELDDTDDRRPTRAQKERNEEPEIEEEIDESEDETVDEERVERRPRKRKKAASKPASRQYMMMGVGILVLLLLIIGIGSALKAPSTTSSDQTASGEKSIDLAGNATDQANGVQPAPGTTSAENTQQDVSLPPISSTPTQGQTPVATDGQQRVEVQGDLNNALTQPQNQQQLNNVAVNSTLPTEPATVAPVRNGNASRDTAKTQTAERPSTTRPARQQAVIEPKKPQATVKTEPKPVAQTPKRTEPAAPVASTKAPAATSTPAPKETATTAPVQTASPAQTTATPAAGAKTAGNVGSLKSAPSSHYTLQLSSSSNYDNLNGWAKKENLKNYVVYETTRNGQPWYVLVSGVYASKEEAKKAVSTLPADVQAKNPWAKPLRQVQADLK
total protein half-life in vivo [7]: 5.8 ± 0.35 h | total protein half-life in vivo [1]: 6.01 ± 0.27 h | total protein half-life in vivo [8]: 5.595 ± 0.021 h | total protein half-life in vivo [9]: 5.74 ± 0.32 h | total protein half-life in vivo [2]: 5.54 ± 0.12 h | total protein half-life in vivo [10]: 2.84 ± 0.091 h | total protein half-life in vivo [11]: 5.51 ± 0.26 h | total protein half-life in vivo [3]: 9.07 ± 0.37 h | total protein half-life in vivo [4]: 5.58 ± 0.49 h | total protein half-life in vivo [12]: 11.9 ± 2 h | total protein half-life in vivo [5]: 5.099 ± 0.038 h | total protein half-life in vivo [6]: 10.285 ± 0.01 h

MDEYSPKRHDIAQLKFLCETLYHDCLANLEESNHGWVNDPTSAINLQLNELIEHIATFALNYKIKYNEDNKLIEQIDEYLDDTFMLFSSYGINMQDLQKWRKSGNRLFRCFVNATKENPASLSC [P0AAR0]
total protein half-life in vivo [7]: 5.61 ± 0.1 h | total protein half-life in vivo [1]: 7.07 h

MDFFSVQNILVHIPIGAGGYDLSWIEAVGTIAGLLCIGLASLEKISNYFFGLINVTLFGIIFFQIQLYASLLLQVFFFAANIYGWYAWSRQTSQNEAELKIRWLPLPKALSWLAVCVVSIGLMTVFINPVFAFLTRVAVMIMQALGLQVVMPELQPDAFPFWDSCMMVLSIVAMILMTRKYVENWLLWVIINVISVVIFALQGVYAMSLEYIILTFIALNGSRMWINSARERGSRALSH [P0AFK2]
total protein half-life in vivo [7]: 6.22 h | total protein half-life in vivo [1]: 6.15 ± 0.15 h | total protein half-life in vivo [8]: 6.54 h | total protein half-life in vivo [9]: 5.58 ± 0.22 h | total protein half-life in vivo [2]: 5.5 ± 0.096 h | total protein half-life in vivo [10]: 3.29 ± 0.33 h | total protein half-life in vivo [11]: 6.14 ± 0.31 h | total protein half-life in vivo [3]: 11.8 ± 2.2 h | total protein half-life in vivo [4]: 6.05 h | total protein half-life in vivo [12]: 11.5 ± 3 h | total protein half-life in vivo [5]: 6.07 ± 0.39 h

MDFSIMVYAVIALVGVAIGWLFASYQHAQQKAEQLAEREEMVAELSAAKQQITQSEHWRAECELLNNEVRSLQSINTSLEADLREVTTRMEAAQQHADDKIRQMINSEQRLSEQFENLANRIFEHSNRRVDEQNRQSLNSLLSPLREQLDGFRRQVQDSFGKEAQERHTLTHEIRNLQQLNAQMAQEAINLTRALKGDNKTQGNWGEVVLTRVLEASGLREGYEYETQVSIENDARSRMQPDVIVRLPQGKDVVIDAKMTLVAYERYFNAEDDYTRESALQEHIASVRNHIRLLGRKDYQQLPGLRTLDYVLMFIPVEPAFLLALDRQPELITEALKNNIMLVSPTTLLVALRTIANLWRYEHQSRNAQQIADRASKLYDKMRLFIDDMSAIGQSLDKAQDNYRQAMKKLSSGRGNVLAQAEAFRGLGVEIKREINPDLAEQAVSQDEEYRLRSVPEQPNDEAYQRDDEYNQQSR [P0AG71]
total protein half-life in vivo [7]: 6.83 ± 1.6 h | total protein half-life in vivo [1]: 5.88 ± 0.096 h | total protein half-life in vivo [8]: 4.5 ± 0.072 h | total protein half-life in vivo [9]: 3.82 ± 0.52 h | total protein half-life in vivo [2]: 3.36 ± 0.004 h | total protein half-life in vivo [10]: 2.76 ± 0.076 h | total protein half-life in vivo [11]: 4.87 ± 0.12 h | total protein half-life in vivo [3]: 7.51 ± 0.44 h | total protein half-life in vivo [4]: 3.91 ± 0.74 h | total protein half-life in vivo [12]: 7.2 ± 1.9 h | total protein half-life in vivo [5]: 4.59 ± 1.3 h | total protein half-life in vivo [6]: 7.03 ± 0.77 h
